Target: monoacetylated histone H3 peptide …(AcK)APRKQL, acetylated on lysine-14
Experiment: cell-based or functional assay

monoacetylated histone H3 peptide …(AcK)APRKQL, acetylated on lysine-14, sequence (peptide, as listed by the source): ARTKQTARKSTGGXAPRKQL

Km, deacetylation of acetylated H3 peptide, charcoal-binding assay	V/K, deacetylation of acetylated H3 peptide, charcoal-binding assay	Substance
54.2 µM	3930 M⁻¹ s⁻¹	recombinant human SIRT2 (6xHis-tagged, with factor Xa cleavage site, purified from E. coli) (from UniProt Q8IXJ6 1-389) (enzyme)
0.28 µM	718000 M⁻¹ s⁻¹	recombinant yeast Hst2p (from UniProt P53686 1-357) (enzyme)
